Key:
[1] = molecular target: T1, SARS-CoV-2 바이러스 표면 단백질 (RBD), WT (SARS-CoV-2, UniProt P0DTC2 319-541); test: BLI (Octet), Full IgG on RBD WT
[2] = molecular target: T1, SARS-CoV-2 바이러스 표면 단백질 (RBD), WT; test: BLI (Octet), Full IgG culture supernatant on SARS-CoV-2 RBD

B1: No. 32 항체 (Full IgG) (antibody, V domains shown)
VH: EVQLVQSGGGLIQPGGSLRLSCAASEFIVSSNYMTWVRQAPGKGLEWVSIIYPGGSTYYADSVKGRFTISRDNSKNTLYLRMNSLRAEDTAVYYCARDLPLTGTTLDYWGQGTLVTVSS
VL: not shown
B1 was tested, and the Kd [1] was 0.305 nM, the koff [1] was 0.000193 s⁻¹ and the kon [1] was 633000 M⁻¹ s⁻¹. For the same binder, the Kd [2] was 0.147 nM.

From patent KR20220013297A (dated 2022)
